# Data from the DeepSol protein solubility set.
# Assay: soluble on expression in E. coli; label from the status in PepcDB or PDB records
row,Sequence,soluble on expression in E. coli
1,MFMSTDEVRRAFLSFFESKGHQIVESSSLVPANDPTLLFTNAGMNQFKDCFLGLEKRAYTRATTAQRCVRAGGKHNDLENVGFTARHHTFFEMLGNFSFGDYFKEDAIQYAWEFLTDVLQLPKERLLVTVYETDDEAFDIWNKKVGIPADRIIRIGDKKGGKKFDSDNFWQMGDTGPCGPCTEIFYDHGDHIWGGPPGSPEEDGDRFIEIWNNVFMQFNRHADGTMEPLPKPSVDTGMGIERISAIMQGVHSNYEIDVFQTLIKAAADAIGYQDLTNQSLRVVADHIRSCAFLIVDGVMPSNEGRGYVLRRIIRRAVRHGNKLGAQGAFFHKLVGPLAEVMGTAGVELKKQQALVEKVLRIEEENFGRTLDRGMSILNDALDQLSGQVLDGETVFKLYDTYGFPADLTNDVARERGFSIDEAGFEQAMEEQRQRAREAGQFGTDYNSLIKSATNTEFCGYTASRGQSVVREMFVEGAEVSTLSAGDKAIIVLDNTPFYAESGGQCGDTGVLKTDAGIFHVEDTQKLGNAIAHHGVIAQGVLATGDQVDAIVDEKRRAAISLNHSATHLLHAALRKVLGEHVAQKGSLVRAETLRFDFSHLEAMTAAEIKEVERLVNQEVRRNHSIETNIMNIDEAKAKGAMALFGEKYDDQVRVLSMGDFSTELCGGIHASNTGDIGLFKIISEGGIAAGIRRIEAVTGEGALDYLDAQQAQHDAKVSEMAAKAKLLEKEIQQLKDKLAAKESAGLINQVKQIAGVNVLVAQLNGADNKALRGMVDDLKNQLSSGIIMLGNVAEGKVGLIAGVTNDLTNKVKAGELVNMVALQVGGKGGGRPDMAQAGGTDAHALPSALESVDAWIAERL,not soluble
2,MFNKKENSSPDVFDTLIGVNTFLEGNIETEGTVRIDGKIKGNVKVKGDVYIGKDANINGNISANNVYMSGRVDGNIEAKGVLRILSTAQLYGDILVQSLISDEGSIFEGNCKMVSASNAQNSDGSVSKNNKNVKDKDGDKSHTSA,not soluble
3,MFPYFESVATASTEFHAIEPDPHMRRQAAEQANTQATPIHIESSPAEALPYYEDTFDVVITSMVFCTIPDIESAMSEITRVLKPGGELRFFEHVIDDGWRARLQSALAPLWKRLAGGCHLTRQTGTRLVADQSFDVVEIERLNLGITPIRPFVRGRLRKRSVSSTRLEHHHHHH,not soluble
4,MFQAQHLTKSFGDLVLFEDLSFSIERGEKVGLIARNGNGKTTLMNILTGIDSPDSGEVIYQNGIRRAYLPQLPQVLPGSTVLETCFGHNDEMTSLIAQWEEASARGDGKRMEELLPEMDALGAWEYEQRAREILTRLHLDDLHCTTDNLSGGELKRIALAGTLIGNPELLFLDEPTNHLDLDVIEWLEGYLSHQQIGLLLVTHDRYFLDRVCNRILELDNKQLYAYKGNYEYYLNKREERLEATERETSRAANLLRREAEWMHRRPQARGTKAKSRIDAFYELKEKAQPRHRDETLHLSEQGRYIGNKIFEAHKVCKAFGDRTILSDFDYIFSRYDKVGIVGPNGVGKTTFLRLLLGEEKPDSGYFDVGETVRFGYYSQKGMQFDENKRVIEAVQDIAEVIRNEKDGTTLSASALLTQFLFPPEKQYTPIHKLSGGEQRRLYLCTVLMKNPNFLILDEPTNDLDILTLNVLENYLSEFKGCVLVVSHDRFFMDKVVNHLFTFEGNGIVKDFPGNYTQYREYKQQEEAERQTVESSPSTRKAESEKPRTDAAERPRKLTFKEKQELERLEAELPKLEKEKAELESRMSSGTMATDELLTAGDRIAALIEEIDSKGMRWLELSDI,not soluble
5,MFQASMRSPNMEPFKQQKVEDFYDIGEELGSGQFAIVKKCREKSTGLEYAAKFIKKRQSRASRRGVSREEIEREVSILRQVLHHNVITLHDVYENRTDVVLILELVSGGELFDFLAQKESLSEEEATSFIKQILDGVNYLHTKKIAHFDLKPENIMLLDKNIPIPHIKLIDFGLAHEIEDGVEFKNIFGTPEFVAPEIVNYEPLGLEADMWSIGVITYILLSGASPFLGDTKQETLANITAVSYDFDEEFFSQTSELAKDFIRKLLVKETRKRLTIQEALRHPWITPVDNQQAMVRRESVVNLENFRKQYVRRRWKLSFSIVSLCNHLTRSLMKKVHLRPDEDLRNCESDTEEDIARRKALHPRRRSSTS,soluble
6,MFQDMSKDFDIKRIKRSNTSCSTGVGAHVHPFNEIFYLSSGECTSFIDHNIYKFGKGDLVIVPSGCLHRTTYNGKGMHERIVISFRNEATEWIQNQTGKELMENCMKPGVVNIPEKRRDYVVALLDKLIFENDSPDELSPAFIKVGLIELLLFIIRCKNYEENVIKEIDVDNR,not soluble
7,MFQKVDAYAGDPILTLMERFKEDPRSDKVNLSIGLYYNEDGIIPQLQAVAEAEARLNAQPHGASLYLPMEGLNCYRHAIAPLLFGADHPVLKQQRVATIQTLGGSGALKVGADFLKRYFPESGVWVSDPTWENHVAIFAGAGFEVSTYPWYDEATNGVRFNDLLATLKTLQAGSIVLLHPCCHNPTGADLTNDQWDAVIEILKARELIPFLDIAYQGFGAGMEEDAYAIRAIASAGLPALVSNSFSKIFSLYGERVGGLSVMCEDAEAAGRVLGQLKATVRRNYSSPPNFGAQVVAAVLNDEALKASWLKEVEEMRTRILAMRQELVKVLSTEMPERNFDYLLNQRGMFSYTGLSAAQVDRLREEFGVYLIASGRMCVAGLNTANVQRVAKAFAAVM,soluble
8,MFQTFEGDLKWHHHNITYWIQNYSEDLPRAVIDDAFARAFALWSAVTPLTFTRVYSRDADIVIQFGVAEHGDGYPFDGKDGLLAHAFPPGPGIQGDAHFDDDELWSLGKGQGYSLFLVAAHEFGHALGLDHSSVPEALMYPMYRFTEGPPLHKDDVNGIRHLY,soluble
9,MFRRLILRQAAAVAAESKIACHHTVHGFEQRRGLHSRNEKAMEYVAKGWSAIKEVERVIDYCELNDRRLIPLLRGAKENFELALEADNLNTHARYWLSKLHLKYHVPGACKAVGAALLVEAADMGNADAQYELGCRLRVENDHVQSDQQAFHYIENAVDQLHPGALYLLGIVYLTGDCVKQDVDSAIWCFHRASEKGHAGAAIAYGSLLLRGVQVPESLTKLNVVGVSPPKRARKNLENPEMNPLEMAKEQFQIAARAGCDLGLKWLQRVEQEEKLLMREQDNECAYV,not soluble
10,MFSDELEKISWEETTKAIYSKTDADVRRALSKEHCDVNDFMALISPAAAPYLETMARLSRKYTMERFGKTISMFVPLYITNSCTNSCVYCGFNHNNPMKRTILTEEEMVNEYKAIKKLAPFENLLLVTGENPAKAGVDYIERALLLAKPYFANLQIEVMPLKAEEYERLTHAGLNGVICFQETYNKANYNIYHPRGMKSKFEWRVNGFDRMGQAGVHKIGMGVLIGLEEWRTDITMMAYHLRYLQKHYWKTKYSVNFPRMRPSENGGFQPNVVMNDRELAQVTFAMRIFDHDVDISYSTRESAAFRNHMATLGVTTMSAESKTEPGGYFTYPQALEQFHVSDERKAVEVDAALRSLGRIPVYKDWDTALTLPQC,soluble
11,MFSIFKRKTKQVNPFEQGWLTDLIDIHCHLLPAVDDGSKSIEETLSLIDLLEEIGVKQHILTPHIMEEYPSNDAIFLRARFEELLAAITPDKASRLRLAAEYMLDVAFLDRLAEPLLTLGDR,not soluble
12,MFSPSKFRKQVNESESVSNCESTTSNSRRILDQHAGLPISSAFRTEASDIGHHFSTKMYFKILSPNNVFALMGDNEFKTSFKIFTIFEPTSTPNGKIQSLITISYKINNVLFKMEKEIFIEKVNIFSLELHIFNFQSTNRSNPASESIHQLDLSSEALVTSTLNIRGNKITTTLRPRTSPYKRAGDASMSREDLRSPDSVSTFTTVLHVFHKVFQVAATYTIRENRSERQTKVKLESLERRLKANEKARKEIEAEAEKWKDRATRNSKRLPELELELAETVQAKEEWQVKSQEMEIQNKQLVEELNEVQKKLEEIENSQKTFHQKVVSTLNLDEEYFQNPDEEQDGSLSQFNMDVLEQEIVKYQEKCISLKQENEILKEKLQQLSSSLTVNQNHVSTLMDHLEINKEQSREIQGICKKEIAIRQDHENRINHDVTLLNSLINEQKMELEMLKAEIRCLRSYSQEMSQSNKNNIILLKSAETERKSLLETLTVLLNSEEEATENNVKRTIRDLVRERDTEQTKRFEAEKAASNAEGVLLEQAKQQRNALFRARVSEEEYSKSMEKIEELEQELLASDLERKNLEHKIASLENCISKVSQLLNVNVGGVFDAIFDRIEELIAQESVYRVVVNENRLISENIFRGLQSVRKDFQSGKSGGGSDKKQPASPVAAAAKIIQERHTLKTIDKMDKLNKDLLATMTIETLKAADIEKTNLKKRMNEQDARIRQLEREKKEGERIRSIIAKWEKRNIPKTEKSSPMKKVPPIENFRAKSQTSITGLSPVL,not soluble
13,MFSSAVRALCRTVPTVATRQLSTSRALLSLRPLGPKNTVPAFKGTAVVDGDFKVISDQDYKGKWLVMFFYPLDFTFVCPTEIIAYGDRANEFRSLGAEVVACSCDSHFSHLAWVNTPRKDGGLGDMDIPLLADFNKKIADSFGVLDKESGLSYRGLFLIDPSGTVRHTTCNDLPVGRSVDETLRVLKAFQFSDKHGEVCPADWHEDSPTIKPGVATSKEYFNKVNK,not soluble
14,MFSVTLLVVSCGILAAAYPYSQQYGNYDQQYSQQSQYYPSSGQQGYRGGYQSNPGMQGGYQGNGQDSYQDFQGYQGYQRGQGGQRGYQGYQSNQRSQGSYPERYDSSMYSPVMDLTNYYGSQGTPQYYGYPSSASYQMTPYYQNQNQGYMQQQQYNTPSQSSWSPMYYGNGYQSQQSQQQQSSMGIRPYQSSWGQTQGTNTWGSPYQFTKVDAQVTDDDNVDGSGMDSSEQTSSPASTDDSQMTSNDD,not soluble
15,MFTGLVEETGEILKVEEGPFLRVYIGARKVLKDLKVGDSVAVDGACLTAVTVEEGGFWVELAQETLRRTAPTWRVGHRPNLERALKVGDRLGGHFVTGHVDGVARLWEVREAPGAKDFYFLPPKALAPYIAEKGSVALNGVSLTVAGLTGEAFWVTLIPHTLEVTNLGRLRVGDGVNLEVDLIARYVARLLGRA,soluble
16,MFTQLALLSVLAVFVAQATMNLPSQEQYNAELKSAGMSQAGIDGLNVLSQKFVSQYPVVQANKEAADKFLAEYTEEAQNYVKSMSPEDQKIYAESLKKYGLA,not soluble
17,MFTRQAGHFVEGSKAGRSRGRLCLSQALRVAVRGAFVSLWFAAGAGDRERNKGDKGAQTGAGLSQEAEDVDVSRARRVTDAPQGTLCGTGNRNSGSQSARAVGVAHLGEAFRVGVEQAISSCPEEVHGRHGLSMEIMWAQMDVALRSPGRGLLAGAGALCMTLAESSCPDYERGRRACLTLHRHPTPHCSTWGLPLRVAGSWLTVVTVEALGRWRMGVRRTGQVGPTMHPPPVSGASPLLLHHLLLLLLIIILTC,not soluble
18,MFTYKIGLSTSEHDRFVIDSPQTNLLQSSSWAKIKDSWGNDRLGFYQDDKLVAVASVLIQPLPLGFSMIYIPRGPIMDYQDKELLAFVITSLKKYAKTKRALFVKFDPSLFVTKNLISQEVNINEDTLSIAKDIQALGVEWTGLTEDMAENIQPRFQANIYKEDFTEEQLSKST,not soluble
19,MFVDQVKVYVKGGDGGNGMVAFRREKYVPKGGPAGGDGGKGGDVVFEVDEGLRTLMDFRYKKHFKAIRGEHGMSKNQHGRNADDMVIKVPPGTVVTDDDTKQVIADLTEHGQRAVIARGGRGGRGNSRFATPANPAPQLSENGEPGKERYIVLELKVLADVGLVGFPSVGKSTLLSVVSSAKPKIADYHFTTLVPNLGMVETDDGRSFVMADLPGLIEGAHQGVGLGHQFLRHIERTRVIVHVIDMSGLEGRDPYDDYLTINQELSEYNLRLTERPQIIVANKMDMPEAAENLEAFKEKLTDDYPVFPISAVTREGLRELLFEVANQLENTPEFPLYDEEEL,soluble
20,MGAGESSMALEKHLFDLKFAAKQLEKNAQRCEKDEKVEKDKLTAAIKKGNKEVAQVHAENAIRKKNEAVNYIKMAARIDAVAARVQTAATQKRVTASMSGVVKAMESAMKSMNLEKVQQLMDRFERDFEDLDVTTKTMEKTMDGTTVLNAPKSQVDALIAEAADKAGIELNQELPSNVPTALPTGTQAVSEDKDLTERLAALRNM,not soluble
